In patent US20150202273A1 (SHENZHEN INNOVATION IMMUNOTECHNOLOGY, published 2015):

Each binder was assayed against HLA-A2 molecules on T2 cells (human) (assay: cell-based or functional assay).

Row | IFN-γ release (ELISA) by expanded peptide-specific T cells in response to T2 cells pre-loaded with titrated peptide (0-20 µg/ml) [µg/mL] | Binder
1 | 5 | VILANIYLLV [PSGR14]
2 | 5 | WLAFPLCSL [PSGR4]
3 | 5 | ILANIYLLV [PSGR3]
